Measured values taken from publication PMC3388944.

Target: T1, GST-IE(1-1487) (immediate-early protein IEP, full length) (Equine herpesvirus 1, UniProt P17473 1-1487)
T1 sequence: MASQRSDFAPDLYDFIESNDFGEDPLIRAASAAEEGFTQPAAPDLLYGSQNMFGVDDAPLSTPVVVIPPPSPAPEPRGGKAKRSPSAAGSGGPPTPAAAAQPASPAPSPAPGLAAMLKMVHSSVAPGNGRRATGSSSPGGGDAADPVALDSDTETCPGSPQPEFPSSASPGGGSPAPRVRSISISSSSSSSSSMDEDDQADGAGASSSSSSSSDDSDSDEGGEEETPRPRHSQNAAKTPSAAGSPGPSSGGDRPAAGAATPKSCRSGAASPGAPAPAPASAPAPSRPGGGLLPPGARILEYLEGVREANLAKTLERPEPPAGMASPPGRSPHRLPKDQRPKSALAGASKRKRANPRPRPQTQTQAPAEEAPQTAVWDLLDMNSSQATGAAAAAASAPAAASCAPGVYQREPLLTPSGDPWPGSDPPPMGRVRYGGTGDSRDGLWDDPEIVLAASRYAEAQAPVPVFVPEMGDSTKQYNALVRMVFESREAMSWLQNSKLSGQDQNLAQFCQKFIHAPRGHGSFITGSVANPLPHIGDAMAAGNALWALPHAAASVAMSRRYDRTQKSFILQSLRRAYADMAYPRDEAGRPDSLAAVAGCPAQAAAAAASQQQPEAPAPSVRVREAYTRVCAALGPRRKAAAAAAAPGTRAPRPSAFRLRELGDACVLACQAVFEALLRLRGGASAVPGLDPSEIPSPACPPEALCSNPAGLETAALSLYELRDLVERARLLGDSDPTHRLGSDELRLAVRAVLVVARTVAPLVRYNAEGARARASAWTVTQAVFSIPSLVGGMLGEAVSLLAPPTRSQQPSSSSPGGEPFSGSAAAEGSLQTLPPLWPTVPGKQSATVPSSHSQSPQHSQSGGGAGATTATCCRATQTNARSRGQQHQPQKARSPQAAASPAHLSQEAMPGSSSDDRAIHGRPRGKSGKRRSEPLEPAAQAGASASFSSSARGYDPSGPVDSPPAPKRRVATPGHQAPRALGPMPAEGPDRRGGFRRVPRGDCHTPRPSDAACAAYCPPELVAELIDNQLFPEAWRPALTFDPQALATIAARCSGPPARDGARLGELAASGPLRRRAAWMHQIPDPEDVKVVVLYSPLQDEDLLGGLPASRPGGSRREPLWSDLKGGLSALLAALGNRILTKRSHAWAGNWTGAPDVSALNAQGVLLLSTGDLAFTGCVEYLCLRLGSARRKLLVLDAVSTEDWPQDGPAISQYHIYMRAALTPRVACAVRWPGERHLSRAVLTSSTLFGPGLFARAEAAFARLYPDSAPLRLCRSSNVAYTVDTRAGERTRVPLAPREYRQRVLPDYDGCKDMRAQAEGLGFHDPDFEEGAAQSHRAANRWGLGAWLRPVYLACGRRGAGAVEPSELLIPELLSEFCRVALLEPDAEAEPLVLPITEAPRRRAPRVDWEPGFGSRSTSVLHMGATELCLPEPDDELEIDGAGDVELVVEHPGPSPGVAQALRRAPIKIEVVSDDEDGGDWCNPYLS
Assay: EMSA

B1: wtIEBS probe (IE promoter -16 to +22) (dsDNA)
DNA 1: TTGCTTACCCATCGTAGCATCGCGGACTAGAGAGCCTT
DNA 2: TTAAGGCTCTCTAGTCCGCGATGCTACGATGGGTAAGC
binding result: binds
